Results on one protein are retold here after doi:10.1101/093708 (bioRxiv, 2016).

This data set deals with the molecule itself. In words: cryo-EM structure; EcFtsZ 0.5 mg/mL in 50 mM HEPES-KOH, 100 mM potassium acetate, 5 mM magnesium acetate, pH 7.7, 20 °C, 0.1 mM GMPCPP; helical reconstruction of filaments in RELION.

B1: Escherichia coli FtsZ, full length, untagged, wildtype (natural protein, E. coli, UniProt P0A9A6 1-383, looked up)
chain: MFEPMELTNDAVIKVIGVGGGGGNAVEHMVRERIEGVEFFAVNTDAQALRKTAVGQTIQIGSGITKGLGAGANPEVGRNAADEDRDALRAALEGADMVFIAAGMGGGTGTGAAPVVAEVAKDLGILTVAVVTKPFNFEGKKRMAFAEQGITELSKHVDSLITIPNDKLLKVLGRGISLLDAFGAANDVLKGAVQGIAELITRPGLMNVDFADVRTVMSEMGYAMMGSGVASGEDRAEEAAEMAISSPLLEDIDLSGARGVLVNITAGFDLRLDEFETVGNTIRAFASDNATVVIGTSLDPDMNDELRVTVVATGIGMDKRPEITLVTNKQVQQPVMDRYQQHGMAPLTQEQKPVAKVVNDNAPQTAKEPDYLDIPAFLRKQAD
notes: also called EcFtsZ; E. coli FtsZ; source: E. coli C41 (DE3), purified (GTP and calcium-induced precipitation, Mono Q)
Take B1: the binding result was “binds”.
